US20190233526A1

Target: human C-C motif chemokine receptor 4 (CCR4) on tumor cell lines (human) (UniProt P51679)
Assay: cell-based or functional assay

UniProt P51679, sequence (P51679 whole entry): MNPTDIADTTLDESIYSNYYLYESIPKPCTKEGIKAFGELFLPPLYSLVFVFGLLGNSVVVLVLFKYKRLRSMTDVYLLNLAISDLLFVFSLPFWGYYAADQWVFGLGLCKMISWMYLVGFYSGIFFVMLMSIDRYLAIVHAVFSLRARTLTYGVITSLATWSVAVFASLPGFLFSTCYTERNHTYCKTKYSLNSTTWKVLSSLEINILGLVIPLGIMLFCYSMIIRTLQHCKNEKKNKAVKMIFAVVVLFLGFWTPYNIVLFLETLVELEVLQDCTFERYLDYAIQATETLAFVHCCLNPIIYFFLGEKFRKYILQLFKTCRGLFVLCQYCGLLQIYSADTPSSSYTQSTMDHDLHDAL

GM-CSF fold-induction, CAR T cells co-cultured with irradiated ATL55T cells for 24 hours: 5 fold | IFN-gamma fold-induction, CAR T cells co-cultured with irradiated ATL55T cells for 24 hours: 2 fold | IL-4 fold-induction, CAR T cells co-cultured with irradiated ATL55T cells for 24 hours: 9 fold | IL-5 fold-induction, CAR T cells co-cultured with irradiated ATL55T cells for 24 hours: 4 fold | IL-8 fold-induction, CAR T cells co-cultured with irradiated ATL55T cells for 24 hours: 4 fold | IL-13 fold-induction, CAR T cells co-cultured with irradiated ATL55T cells for 24 hours: 3 fold | MDC fold-induction, CAR T cells co-cultured with irradiated ATL55T cells for 24 hours: 2 fold | TNF-alpha fold-induction, CAR T cells co-cultured with irradiated ATL55T cells for 24 hours: 8 fold | TNF-beta fold-induction, CAR T cells co-cultured with irradiated ATL55T cells for 24 hours: 5 fold | [3H]thymidine incorporation of CAR T cells co-cultured with irradiated CCR4-bearing target cells: > 3 fold | increase of MIP-1α level on co-culture with target cells: 36% | increase of MP-10 (so in the source) level on co-culture with target cells: 25%
Substance: CCR4 CAR (chimeric antigen receptor with mAb2-3 scFv, CD8 hinge and transmembrane domain, 4-1BB signaling domain and CD3 zeta signaling domain), expressed on transduced human CD3+ T cells
